doi:10.1101/2024.09.25.614871v2

Legend:
[1] = substrate: O=C(O)C[C@H](O)C(=O)O; assay: PK/LDH-coupled NADH consumption; assay type: biochemical, Homo sapiens; conditions: 0.1 mM CoA, 7 mM MgCl2, pH 7.5, 30 °C
[2] = substrate: C=C(CC(=O)O)C(=O)O; assay: PK/LDH-coupled NADH consumption; assay type: biochemical, Homo sapiens; conditions: 0.1 mM CoA, 7 mM MgCl2, pH 7.5, 30 °C
purified protein = substrate: CC(C)(COP(=O)(O)OP(=O)(O)OC[C@H]1O[C@@H](n2cnc3c(N)ncnc32)[C@H](O)[C@@H]1OP(=O)(O)O)[C@@H](O)C(=O)NCCC(=O)NCCSC(=O)C[C@H](O)C(=O)O; assay: purified protein; assay type: biochemical, Sus scrofa; conditions: pH 7.5, 37 °C, 100 mM Tris

B1: SUCL (GDP-forming), SUCLG1:SUCLG2 complex (Homo sapiens) (protein)
chain 1: not shown
chain 2: LNLQEYQSKKLMSDNGVRVQRFFVADTANEALEAAKRLNAKEIVLKAQILAGGRGKGVFNSGLKGGVHLTKDPNVVGQLAKQMIGYNLATKQTPKEGVKVNKVMVAEALDISRETYLAILMDRSCNGPVLVGSPQGGVDIEEVAASNPELIFKEQIDIFEGIKDSQAQRMAENLGFVGPLKSQAADQITKLYNLFLKIDATQVEVNPFGETPEGQVVCFDAKINFDDNAEFRQKDIFAMDDKSENEPIENEAAKYDLKYIGLDGNIACFVNGAGLAMATCDIIFLNGGKPANFLDLGGGVKEAQVYQAFKLLTADPKVEAILVNIFGGIVNCAIIANGITKACRELELKVPLVVRLEGTNVQEAQKILNNSGLPITSAIDLED
With B1 the Km ([1]; 0.6 mM GTP) was 1900 ± 300 µM, the kcat ([1]; 0.6 mM GTP) was 0.18 ± 0.02 s⁻¹ and the Km ([2]; 0.6 mM GTP) was 1500 ± 200 µM. For the same protein, the kcat ([2]; 0.6 mM GTP) was 5.3 ± 0.2 s⁻¹.

B2: SUCL (ADP-forming), SUCLG1:SUCLA2 complex (Homo sapiens) (protein)
chain 1: not shown
chain 2: LSLHEYMSMELLQEAGVSVPKGYVAKSPDEAYAIAKKLGSKDVVIKAQVLAGGRGKGTFESGLKGGVKIVFSPEEAKAVSSQMIGKKLFTKQTGEKGRICNQVLVCERKYPRREYYFAITMERSFQGPVLIGSSHGGVNIEDVAAESPEAIIKEPIDIEEGIKKEQALQLAQKMGFPPNIVESAAENMVKLYSLFLKYDATMIEINPMVEDSDGAVLCMDAKINFDSNSAYRQKKIFDLQDWTQEDERDKDAAKANLNYIGLDGNIGCLVNGAGLAMATMDIIKLHGGTPANFLDVGGGATVHQVTEAFKLITSDKKVLAILVNIFGGIMRCDVIAQGIVMAVKDLEIKIPVVVRLQGTRVDDAKALIADSGLKILACDDLDEAARMVVKLSEIVTLAKQAHVDVKFQLPI
B2 gave a Km ([1]; 0.6 mM ATP) of 21900 ± 5800 µM, a kcat ([1]; 0.6 mM ATP) of 0.06 ± 0.01 s⁻¹ and a Km ([2]; 0.6 mM ATP) of 19100 ± 2500 µM. For the same protein, the kcat ([2]; 0.6 mM ATP) was 0.65 ± 0.08 s⁻¹.

B3: citrate synthase (CS) (Sus scrofa) (protein)
chain: ASSTNLKDILADLIPKEQARIKTFRQQHGNTVVGQITVDMMYGGMRGMKGLVYETSVLDPDEGIRFRGYSIPECQKMLPKAKGGEEPLPEGLFWLLVTGQIPTEEQVSWLSKEWAKRAALPSHVVTMLDNFPTNLHPMSQLSAAITALNSESNFARAYAEGIHRTKYWELIYEDCMDLIAKLPCVAAKIYRNLYREGSSIGAIDSKLDWSHNFTNMLGYTDAQFTELMRLYLTIHSDHEGGNVSAHTSHLVGSALSDPYLSFAAAMNGLAGPLHGLANQEVLVWLTQLQKEVGKDVSDEKLRDYIWNTLNSGRVVPGYGHAVLRKTDPRYTCQREFALKHLPHDPMFKLVAQLYKIVPNVLLEQGKAKNPWPNVDAHSGVLLQYYGMTEMNYYTVLFGVSRALGVLAQLIWSRALGFPLERPKSMSTDGLIKLVDSK
B3 gave a Km (purified protein) of 106 µM.
